Measurements: US20100280227A1 (Genentech, published 2010)
Changes are numbered by the printed parent chain.

Assays:
[1] = target: T1, variant human BR3-Fc fusion; assay: SPR, vBR3-Fc on chip;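 further: Anti-BR3 antibodies passed over chip-bound BR3-Fc in PBS with 0.05% polysorbate 20, on and off rates fitted together globally to a 1:1 binding model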
T1 construct: produced in CHO cells; also called vBR3-Fc; vhBR3-Fc
Protocol: After coupling, unoccupied sites on the chip were blocked by injecting 20 μl of 1M ethanolamine, pH 8.5. The running buffer was PBS containing 0.05% polysorbate 20. […] The binding surface was regenerated by injecting 20-30 μl of 10 mM glycine.HCl (pH 1.5). […] Data were analyzed using a 1:1 binding model using global fitting. The association and dissociation rate constants were fitted simultaneously (BIAevaluation software).
A high flow rate was used in order to minimize mass transport effects.

[2] = target: T2, human BR3 expressed on cells (human, UniProt Q96RJ3 1-184); assay: BJAB cells, direct binding
T2 construct: whole, on cells; also called BR3 on BJAB cells; cell surface BR3

[3] = target: T3, human BR3 extracellular domain (human, UniProt Q96RJ3 1-61); assay: SPR, BR3 ECD on chip;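 further: Anti-BR3 antibodies passed over the chip at high flow in PBS with 0.05% polysorbate 20, on and off rates fitted together globally to a 1:1 binding model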
T3 construct: biotinylated where used as tracer; also called hBR3-ECD; BR3-ECD

[4] = target: T3, human BR3 extracellular domain; assay: SPR, IgG on chip, BR3 ECD in solution
[5] = target: T2, human BR3 expressed on cells; assay: BJAB cells, competition with biotin-BAFF
Protocol: The diluted samples were added to the pelleted BJAB cells in 96 well plates as described above. After 45 min incubation on ice, the cells were washed twice with 200 μl cold assay buffer, and streptavidin-HRP (AMDEX, Amersham Biosciences, Piscataway, N.J.) diluted 1/5,000 in assay buffer was added (100 μl/well). The plates were incubated for a final 45 min on ice. After washing twice with cold assay buffer, color was developed using TMB, the reaction was stopped with H₃PO₄, and the plates were read as described above.

[6] = target: T4, mouse BR3 extracellular domain (mouse, UniProt Q9D8D0 1-64); assay: SPR, IgG on chip, BR3 ECD in solution
T4 construct: also called mBR3-ECD; mBR-ECD
T4 sequence: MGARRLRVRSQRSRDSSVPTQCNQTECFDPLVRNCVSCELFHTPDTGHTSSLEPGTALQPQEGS

[7] = target: T3, human BR3 extracellular domain; assay: SPR BIAcore-3000, Fab
Description: (§1) Surface plasmon resonance assays on a BIAcore™-3000 were used to determine the affinity of the Fabs.

[8] = target: T4, mouse BR3 extracellular domain; assay: SPR BIAcore-3000, Fab
Description: as §1

[9] = target: T3, human BR3 extracellular domain; assay: phage competition ELISA
[10] = target: T4, mouse BR3 extracellular domain; assay: phage competition ELISA

B1: chimeric 9.1 IgG (antibody, V domains shown)
VH: EVKLVESGGGLVQPGGSLRLSCAISGFTVTAYYMSWVRQPPGKALEWLGFIRDKANGYTTEYNPSVKGRFTISRDNSQSIFYLQMNTLRAEDSATYYCAQVRRALDYWGQGTTVTVSA
VL: DIVMSQSPSSLAVSVGEKVTMSCKSSQSLLYSSNQNNYLAWYQQKPGQSPKLLIYWASTRESGVPDRFTGSGSGTDFTLTISSVKAEDLAVYYCQQYYTYPYTFGGGT
notes: also called Ch 9.1 IgG; ch 9.1
Kd [1]: 170 pM | EC50 [2]: 360 pM

B2: Hu2.1-30 IgG (antibody, V domains shown)
VH: EVQLVESGGGLVQPGGSLRLSCAASGDSITRGYWNWVRQAPGKGLEWVGYINYSGTTYYNPSLKSRFTISRDTSKNTFYLQMNSLRAEDTAVYYCANLNYYGAMDYWGQGTLVTVSS
VL: DIQMTQSPSSLSASVGDRVTITCRASESVDDYGISFMHWYQQKPGKAPKLLIYRASDLESGVPSRFSGSGSGTDFTLTISSLQPEDFATYYCQQTSKDPWTFGQGTKVEIKR
notes: humanized IgG; also called h2.1-30
Kd [3]: 17 pM | koff [3]: 4e-05 s⁻¹ | kon [3]: 2.41e+06 M⁻¹ s⁻¹ | EC50 [2]: 110 pM | Kd [4]: 20 pM | koff [4]: 7.6e-05 s⁻¹ | kon [4]: 3.57e+06 M⁻¹ s⁻¹ | IC50 [5]: 170 pM

B3: Hu2.1-46 IgG (antibody, V domains shown)
VH: B2 VH with L98S, Y100F
VL: B2 VL
notes: humanized IgG; also called h2.1-46
Kd [3]: 20 pM | koff [3]: 4.5e-05 s⁻¹ | kon [3]: 2.2e+06 M⁻¹ s⁻¹ | Kd [1]: 41 pM | koff [1]: 3.96e-05 s⁻¹ | kon [1]: 978000 M⁻¹ s⁻¹ | EC50 [2]: 110 pM | Kd [4]: 193 pM | koff [4]: 0.000432 s⁻¹ | kon [4]: 2.24e+06 M⁻¹ s⁻¹ | IC50 [5]: 190 pM

B4: Hu2.1-94 IgG (antibody, V domains shown)
VH: B2 VH with F78L, N97T, L98S, N99H, Y100N, Y101T, A103E
VL: B2 VL
notes: humanized IgG; also called h2.1-94
Kd [3]: 37 pM | koff [3]: 6.6e-05 s⁻¹ | kon [3]: 1.77e+06 M⁻¹ s⁻¹ | Kd [1]: 253 pM | koff [1]: 0.000121 s⁻¹ | kon [1]: 477000 M⁻¹ s⁻¹ | IC50 [5]: 5100 pM

B5: Hu9.1-88 IgG (antibody, V domains shown)
VH: EVQLVESGGGLVQPGGSLRLSCAASGFPVTGSYVSWVRQAPGKGLEWVGFIRDKANGYTTEYNPSVKGRFTISRDTSKNTLYLQMNSLRAEDTAVYYCAQVRRALDYWGQGTLVTVSS
VL: DIQMTQSPSSLSASVGDRVTITCKSSQSLLYSSNQNNYLAWYQQKPGKAPKLLIYWASTRESGVPSRFSGSGSGTDFTLTISSLQPEDFATYYCQQYYTYPYTFGQGTKVEIKR
notes: humanized IgG; also called h9.1-88
Kd [3]: 25 pM | koff [3]: 4.9e-05 s⁻¹ | kon [3]: 1.94e+06 M⁻¹ s⁻¹ | Kd [1]: 200 pM | koff [1]: 0.000262 s⁻¹ | kon [1]: 1.3e+06 M⁻¹ s⁻¹ | EC50 [2]: 430 pM | Kd [4]: 911 pM | koff [4]: 0.000926 s⁻¹ | kon [4]: 1.02e+06 M⁻¹ s⁻¹ | IC50 [5]: 600 pM

B6: h9.1-70 IgG (antibody, V domains shown)
VH: B5 VH with G26D, F27S, V29R, T30S, S32Y, V34I, R74A, L81A
VL: B5 VL with T59I, E61D
EC50 [2]: 330 pM | IC50 [5]: 820 pM

B7: h9.1-73 IgG (antibody, V domains shown)
VH: B5 VH with F27L, V29M, T30A, S32F, V34T, R74A, L81A
VL: B5 VL with S58Q, T59H, R60L, E61D
EC50 [2]: 790 pM | IC50 [5]: 1780 pM

B8: mV3-46 IgG (antibody, V domains shown)
VH: EVQLVESGGGLVQPGGSLRLSCAASGFTISNSSIHWVRQAPGKGLEWVAWVLPSVGFTDYADSVKGRFTISADTSKNTAYLQMNSLRAEDTAVYYCARRVCYNRLGVCAGGMDYWGQGTLVTVSS
VL: DIQMTQSPSSLSASVGDRVTITCRASQDVSTAVAWYQQKPGKAPKLLIYSASFLYSGVPSRFSGSGSGTDFTLTISSLQPEDFATYYCQQSQISPPTFGQGTKVEIKR
notes: IgG on chip
Kd [4]: 240 pM | koff [4]: 7.31e-05 s⁻¹ | kon [4]: 300000 M⁻¹ s⁻¹ | Kd [6]: 1170 pM | koff [6]: 0.00014 s⁻¹ | kon [6]: 119000 M⁻¹ s⁻¹

B9: V3-46s-9 Fab (Fab, V domains shown)
VH: B8 VH with N31S
VL: DIQMTQSPSSLSASVGDRVTITCRASEDISTAVAWYQQKPGKAPKLLIFAASYLYSGVPSRFSGSGSGTDFTLTISSLQPEDFATYYCQQSQISPPTFGQGTKVEIK
notes: soluble Fab in SPR; also called V46s-9
Kd [7]: 90 pM | koff [7]: 1.6e-05 s⁻¹ | kon [7]: 160000 M⁻¹ s⁻¹ | Kd [8]: 320 pM | koff [8]: 0.00015 s⁻¹ | kon [8]: 470000 M⁻¹ s⁻¹ | IC50 [9]: 53 pM | IC50 [10]: 182 pM

B10: V3-46s IgG (antibody, V domains shown)
VH: B8 VH with N31S
VL: B8 VL
notes: also called hV3-46S; HuV3-46s-IgG
EC50 [2]: 1800 pM | IC50 [5]: 1900 pM

B11: V3-46s-42 Fab (Fab, V domains shown)
VH: B8 VH with N31S
VL: B9 VL with F49Y, Y53F
notes: soluble Fab in SPR; also called V46s-42
Kd [7]: 26 pM | koff [7]: 1.4e-05 s⁻¹ | kon [7]: 617000 M⁻¹ s⁻¹ | Kd [8]: 390 pM | koff [8]: 0.00029 s⁻¹ | kon [8]: 740000 M⁻¹ s⁻¹

B12: V3-46s-40 phage clone (Fab, V domains shown)
VH: B8 VH with N31S
VL: B9 VL with D28E, S30A, A32S, A50S, I93V
IC50 [9]: 164 pM | IC50 [10]: 530 pM

B13: V3-46s-1 phage clone (Fab, V domains shown)
VH: B8 VH with N31S
VL: B9 VL with S30A, A32S, Y53F
IC50 [9]: 70 pM | IC50 [10]: 300 pM

B14: V3-46s-29 phage clone (Fab, V domains shown)
VH: B8 VH with N31S
VL: B9 VL with D28E, S30A, Y53F, Q92E, I93V
IC50 [9]: 80 pM | IC50 [10]: 550 pM

B15: V3-46s-37 phage clone (Fab, V domains shown)
VH: B8 VH with N31S
VL: B9 VL with E27Q, I29V, S30A, Y53F
IC50 [9]: 131 pM | IC50 [10]: 320 pM

B16: V3-46s-45 phage clone (Fab, V domains shown)
VH: B8 VH with N31S
VL: B9 VL with I29V, T31S, Y55F, Q90H, I93V
IC50 [9]: 121 pM | IC50 [10]: 370 pM

B17: V3-46s-34 phage clone (Fab, V domains shown)
VH: B8 VH with N31S
VL: B9 VL with T31S, A50S, Y53F, Y55F, I93V
IC50 [9]: 58 pM | IC50 [10]: 790 pM

B18: mV3-46s IgG (antibody, V domains shown)
VH: B8 VH with N31S
VL: B8 VL
notes: IgG on chip
Kd [4]: 20 pM | koff [4]: 3.18e-05 s⁻¹ | kon [4]: 1.57e+06 M⁻¹ s⁻¹ | Kd [6]: 320 pM | koff [6]: 9.51e-05 s⁻¹ | kon [6]: 298000 M⁻¹ s⁻¹

B19: V3-46s-12 phage clone (Fab, V domains shown)
VH: B8 VH with S30A, N31S
VL: B9 VL with T31S, Y53F
notes: differs from V3-46s in CDR-H1 as well
IC50 [9]: 53 pM | IC50 [10]: 209 pM

B20: V3-46s-31 phage clone (Fab, V domains shown)
VH: B8 VH with N31S
VL: B9 VL with E27Q, S30A, A32S, Y55F, I93V
IC50 [9]: 120 pM | IC50 [10]: 342 pM

B21: V3-46s-7 phage clone (Fab, V domains shown)
VH: B8 VH with N31S
VL: B9 VL with T31S, A32S, A50S, Y53F, Y55F, Q92E, I93V
IC50 [9]: 190 pM | IC50 [10]: 960 pM

B22: V3-46s-33 phage clone (Fab, V domains shown)
VH: B8 VH with N31S
VL: B9 VL with D28E, A50S, Q92E, I93V
IC50 [9]: 100 pM | IC50 [10]: 724 pM

B23: V3-46s-10 phage clone (Fab, V domains shown)
VH: B8 VH with N31S
VL: B9 VL with T31S, Y55F, I93V
IC50 [9]: 50 pM | IC50 [10]: 193 pM

B24: V3-46s-13 phage clone (Fab, V domains shown)
VH: B8 VH with N31S
VL: B9 VL with D28E, S30A, Y55F, I93V, S94A
IC50 [9]: 80 pM | IC50 [10]: 713 pM
